{
  "source": "patent US20190263889A1",
  "about": "(ONCOC4, published 2019)",
  "binders": {"B1": {"name": "human B7-1Fc fusion protein (Fc fusion, UniProt P33681 35-242, looked up, not shown: a dimerising Fc or GST)", "chain": "VIHVTKEVKEVATLSCGHNVSVEELAQTRIYWQKEKKMVLTMMSGDMNIWPEYKNRTIFDITNNLSIVILALRPSDEGTYECVVLKYEKDAFKREHLAEVTLSVKADFPTPSISDFEIPTSNIRRIICSTSGGFPEPHLSWLENGEELNAINTTVSQDPETELYAVSSKLDFNMTTNHSFMCLIKYGHLRVNQTFNWNTTKQEHFPDN", "notes": "Used biotinylated in ELISA; also called B7-1 Ig; B7-1 Ig fusion protein"}},
  "key": {"human IgG1-Fc control": {"molecular_target": "T1, human IgG1-Fc control (human, UniProt P01857-1 99-330 = IgG part, limits assumed)", "T1 construct": "domain: Fc; Negative control coated on plates; also called Control IgG1-Fc; hIg-Fc", "experiment": "ELISA, summary grade"}, "[1]": {"molecular_target": "B1", "experiment": "ELISA, summary grade"}, "[2]": {"molecular_target": "T2, CTLA-4Fc mutant protein M6 (human (murine residues substituted))", "T2 construct": "also called Mutant 6", "experiment": "ELISA; binder 10 ng/ml on coated target"}, "[3]": {"molecular_target": "T2, CTLA-4Fc mutant protein M6", "experiment": "ELISA; binder 1000 ng/ml on coated target"}, "[4]": {"molecular_target": "T3, CTLA-4Fc mutant protein M8 (human (murine residues substituted))", "T3 construct": "also called Mutant 8", "experiment": "ELISA; binder 1000 ng/ml on coated target"}},
  "data": [
    {"binder": "human B7-2Fc fusion protein (Fc fusion, UniProt P42081 24-245, looked up, not shown: a dimerising Fc or GST, Used biotinylated in ELISA; also called hB7-2Fc; CD86) APLKIQAYFNETADLPCQFANSQNQSLSELVVFWQDQENLVLNEVYLGKEKFDSVHSKYMGRTSFDSDSWTLRLHNLQIKDKGLYQCIIHHKKPTGMIRIHQMNSELSVLANFSQPEIVPISNITENVYINLTCSSIHGYPEPKKMSVLLRTKNSTIEYDGVMQKSQDNVTELYDVSISLSVSFPDVTSNMTIFCILETDKTRLLSSPFSIELEDPQPPPDH", "values": [
      {"measurement": "binding result", "setting": "human IgG1-Fc control", "result": "no binding"}
    ]},
    {"binder": "CTLA-4Fc mutant protein M16 (Fc fusion) IQVTQPSVVLASSRGIASFVCEYASPGKATEVRVTVLRQADSQVTEVCAATFTEKNTVGFLDDSICTGTFNESRVNLTIQGLRAMDTGLYICKVELMYPPPYFVGMGNGTQIYVIDPEPCPDSDQEPKSSDKTHTSPPSPAPELLGGSSVFLFPPKPKDTLYITREPEVTCVVVDVSHEDPEVKFNWYVDGVEVHNAKTKPREEQYNSTYRVVSVLTVLHQDWLNGKEYKCKVSNKALPAPIEKTISKAKGQPREPQVYTLPPSRDELTKNQVSLTCLVKGFYPSDIAVEWESNGQPENNYKTTPPVLDSDGSFFLYSKLTVDKSRWQQGNVFSCSVMHEALHNHYTQKSLSLSPGK", "values": [
      {"measurement": "binding result", "setting": "[1]", "result": "binds"}
    ]},
    {"binder": "B1", "values": [
      {"measurement": "OD450", "setting": "[2]", "result": 0.279, "unit": "OD450"},
      {"measurement": "binding result", "setting": "human IgG1-Fc control", "result": "no binding"},
      {"measurement": "OD450", "setting": "[3]", "result": 3.41, "unit": "OD450"},
      {"measurement": "OD450", "setting": "[4]", "result": 3.63, "unit": "OD450"}
    ]}
  ]
}
